Source: US20250073302A1, “CYCLIC PEPTIDES AS PROTEASOME STIMULATORS” (Purdue Research Foundation, priority 2023, published 2025)
Non-standard residues stand in square brackets, D forms with d. dBpa = N[C@H](Cc1ccc(C(=O)c2ccccc2)cc1)C(=O)O; dPhe(3,4-F2) = N[C@H](Cc1ccc(F)c(F)c1)C(=O)O; dPhe(3-F) = N[C@H](Cc1cccc(F)c1)C(=O)O; dPhe(4-F) = N[C@H](Cc1ccc(F)cc1)C(=O)O

Biological target: T1, 20S CP
T1 construct: purchased South Bay
Experiment: TAS-1 biochemical assay (20S CP stimulation)
Settings: TAS-1 assay
Description: Each compound was initially tested at 10 μM. Each well contained […] of 11.4 μM TAS-1 solution in Tris HCl (50 mM, pH 7.4) along with 5 nM of 20 sCP (South Bay). 1 μL of the test compound, control, or DMSO was added to the desired well to obtain a final DMSO concentration of 2%, with the total volume being 50 μL. Compounds were tested in three replicates that each had technical triplicates. The fluorescence was recorded using a SynergyNeo 2, where the excitation and emission was set to 335 nm and 493 nm. The plate reader was heated to 37° C. The fluorescence was recorded every 90 seconds over a 1-hour period. A simple linear regression was performed on the data plotted against time to obtain the rate of hydrolysis of TAS-1 by the 20S CP. The data was then normalized against DMSO to get the percent stimulation.

| 20S CP stimulatory activity (in words, SAR compared to CyPPS1) | Substance |
| --- | --- |
| decreased activity | KLFFRA [SEQ ID NO: 7] (cyclo(K[dL]F[dF]R[dA]); SMILES CC(C)C[C@H]1NC(=O)[C@H](CCCCN)NC(=O)[C@@H](C)NC(=O)[C@H](CCCNC(=N)N)NC(=O)[C@@H](Cc2ccccc2)NC(=O)[C@H](Cc2ccccc2)NC1=O) [CyPPS7, cyclic peptide; AA1 Lys, AA2 D-Leu, AA3 Phe, AA4 D-Phe, AA5 Arg, AA6 D-Ala] |
| greatest loss of stimulatory activity | TAFFRA [SEQ ID NO: 3] (cyclo(T[dA]F[dF]R[dA]); SMILES C[C@H]1NC(=O)[C@H](CCCNC(=N)N)NC(=O)[C@@H](Cc2ccccc2)NC(=O)[C@H](Cc2ccccc2)NC(=O)[C@@H](C)NC(=O)[C@H]([C@@H](C)O)NC1=O) [CyPPS3, cyclic peptide; AA1 Thr, AA2 D-Ala, AA3 Phe, AA4 D-Phe, AA5 Arg, AA6 D-Ala] |
| decreased activity | TDFFRA [SEQ ID NO: 10] (cyclo(T[dD]F[dF]R[dA]); SMILES C[C@H]1NC(=O)[C@H](CCCNC(=N)N)NC(=O)[C@@H](Cc2ccccc2)NC(=O)[C@H](Cc2ccccc2)NC(=O)[C@@H](CC(=O)O)NC(=O)[C@H]([C@@H](C)O)NC1=O) [CyPPS10, cyclic peptide; AA1 Thr, AA2 D-Asp, AA3 Phe, AA4 D-Phe, AA5 Arg, AA6 D-Ala] |
| lack of activity | TIFFRA [SEQ ID NO: 12] (cyclo(T[dI]F[dF]R[dA]); SMILES CC[C@@H](C)[C@H]1NC(=O)[C@H]([C@@H](C)O)NC(=O)[C@@H](C)NC(=O)[C@H](CCCNC(=N)N)NC(=O)[C@@H](Cc2ccccc2)NC(=O)[C@H](Cc2ccccc2)NC1=O) [CyPPS12, cyclic peptide; AA1 Thr, AA2 D-Ile, AA3 Phe, AA4 D-Phe, AA5 Arg, AA6 D-Ala] |
| decreased activity | TKFFRA [SEQ ID NO: 11] (cyclo(T[dK]F[dF]R[dA]); SMILES C[C@H]1NC(=O)[C@H](CCCNC(=N)N)NC(=O)[C@@H](Cc2ccccc2)NC(=O)[C@H](Cc2ccccc2)NC(=O)[C@@H](CCCCN)NC(=O)[C@H]([C@@H](C)O)NC1=O) [CyPPS11, cyclic peptide; AA1 Thr, AA2 D-Lys, AA3 Phe, AA4 D-Phe, AA5 Arg, AA6 D-Ala] |
| greatest loss of stimulatory activity | TLFARA [SEQ ID NO: 5] (cyclo(T[dL]F[dA]R[dA]); SMILES CC(C)C[C@H]1NC(=O)[C@H]([C@@H](C)O)NC(=O)[C@@H](C)NC(=O)[C@H](CCCNC(=N)N)NC(=O)[C@@H](C)NC(=O)[C@H](Cc2ccccc2)NC1=O) [CyPPS5, cyclic peptide; AA1 Thr, AA2 D-Leu, AA3 Phe, AA4 D-Ala, AA5 Arg, AA6 D-Ala] |
| stimulatory activity was preserved | TLFFAR [SEQ ID NO: 6] (cyclo(T[dL]F[dF]A[dR]); SMILES CC(C)C[C@H]1NC(=O)[C@H]([C@@H](C)O)NC(=O)[C@@H](CCCNC(=N)N)NC(=O)[C@H](C)NC(=O)[C@@H](Cc2ccccc2)NC(=O)[C@H](Cc2ccccc2)NC1=O) [CyPPS6, cyclic peptide; AA1 Thr, AA2 D-Leu, AA3 Phe, AA4 D-Phe, AA5 Ala, AA6 D-Arg] |
| maintained stimulatory activity | TLFFRS [SEQ ID NO: 22] (cyclo(T[dL]F[dF]R[dS]); SMILES CC(C)C[C@H]1NC(=O)[C@H]([C@@H](C)O)NC(=O)[C@@H](CO)NC(=O)[C@H](CCCNC(=N)N)NC(=O)[C@@H](Cc2ccccc2)NC(=O)[C@H](Cc2ccccc2)NC1=O) [CyPPS22, cyclic peptide; AA1 Thr, AA2 D-Leu, AA3 Phe, AA4 D-Phe, AA5 Arg, AA6 D-Ser] |
| decreased activity | TLFXRA [SEQ ID NO: 18] (cyclo(T[dL]F[dPhe(4-F)]R[dA]); SMILES CC(C)C[C@H]1NC(=O)[C@H]([C@@H](C)O)NC(=O)[C@@H](C)NC(=O)[C@H](CCCNC(=N)N)NC(=O)[C@@H](Cc2ccc(F)cc2)NC(=O)[C@H](Cc2ccccc2)NC1=O) [CyPPS18, cyclic peptide; AA1 Thr, AA2 D-Leu, AA3 Phe, AA4 D-Phe (4F), AA5 Arg, AA6 D-Ala] |
| retained activity | TLFXRA [SEQ ID NO: 19] (cyclo(T[dL]F[dPhe(3-F)]R[dA]); SMILES CC(C)C[C@H]1NC(=O)[C@H]([C@@H](C)O)NC(=O)[C@@H](C)NC(=O)[C@H](CCCNC(=N)N)NC(=O)[C@@H](Cc2cccc(F)c2)NC(=O)[C@H](Cc2ccccc2)NC1=O) [CyPPS19, cyclic peptide; AA1 Thr, AA2 D-Leu, AA3 Phe, AA4 D-Phe (3F), AA5 Arg, AA6 D-Ala] |
| retained activity | TLFXRA [SEQ ID NO: 20] (cyclo(T[dL]F[dPhe(3,4-F2)]R[dA]); SMILES CC(C)C[C@H]1NC(=O)[C@H]([C@@H](C)O)NC(=O)[C@@H](C)NC(=O)[C@H](CCCNC(=N)N)NC(=O)[C@@H](Cc2ccc(F)c(F)c2)NC(=O)[C@H](Cc2ccccc2)NC1=O) [CyPPS20, cyclic peptide; AA1 Thr, AA2 D-Leu, AA3 Phe, AA4 D-Phe (3, 4F), AA5 Arg, AA6 D-Ala] |
| stimulatory activity was maintained | TLFXRA [SEQ ID NO: 21] (cyclo(T[dL]F[dBpa]R[dA]); SMILES CC(C)C[C@H]1NC(=O)[C@H]([C@@H](C)O)NC(=O)[C@@H](C)NC(=O)[C@H](CCCNC(=N)N)NC(=O)[C@@H](Cc2ccc(C(=O)c3ccccc3)cc2)NC(=O)[C@H](Cc2ccccc2)NC1=O) [CyPPS21, cyclic peptide; AA1 Thr, AA2 D-Leu, AA3 Phe, AA4 D-BPA, AA5 Arg, AA6 D-Ala] |
| decline in stimulatory activity | TLFYRA [SEQ ID NO: 17] (cyclo(T[dL]F[dY]R[dA]); SMILES CC(C)C[C@H]1NC(=O)[C@H]([C@@H](C)O)NC(=O)[C@@H](C)NC(=O)[C@H](CCCNC(=N)N)NC(=O)[C@@H](Cc2ccc(O)cc2)NC(=O)[C@H](Cc2ccccc2)NC1=O) [CyPPS17, cyclic peptide; AA1 Thr, AA2 D-Leu, AA3 Phe, AA4 D-Tyr, AA5 Arg, AA6 D-Ala] |
| decline in stimulatory activity | TLYFRA [SEQ ID NO: 16] (cyclo(T[dL]Y[dF]R[dA]); SMILES CC(C)C[C@H]1NC(=O)[C@H]([C@@H](C)O)NC(=O)[C@@H](C)NC(=O)[C@H](CCCNC(=N)N)NC(=O)[C@@H](Cc2ccccc2)NC(=O)[C@H](Cc2ccc(O)cc2)NC1=O) [CyPPS16, cyclic peptide; AA1 Thr, AA2 D-Leu, AA3 Tyr, AA4 D-Phe, AA5 Arg, AA6 D-Ala] |
| maintained stimulatory activity | VLFFRA [SEQ ID NO: 9] (cyclo(V[dL]F[dF]R[dA]); SMILES CC(C)C[C@H]1NC(=O)[C@H](C(C)C)NC(=O)[C@@H](C)NC(=O)[C@H](CCCNC(=N)N)NC(=O)[C@@H](Cc2ccccc2)NC(=O)[C@H](Cc2ccccc2)NC1=O) [CyPPS9, cyclic peptide; AA1 Val, AA2 D-Leu, AA3 Phe, AA4 D-Phe, AA5 Arg, AA6 D-Ala] |
